Experimental data published in US20210140973A1 (NITTO BOSEKI, published 2021).

Legend:
[1] = target: Myeloma human IgA1 (Abcam) (human, UniProt P01876-1 1-353); assay: indirect ELISA, antigen coated 1 µg/mL, antibody 1 µg/mL; no-antigen well 0.048
Protocol: (§1) Myeloma human IgA1 (Abcam), Myeloma human IgA2 (Abcam), Myeloma human IgD (Abcam), Myeloma human IgE (Abcam), Myeloma human IgM (Abcam), Myeloma human IgG1 (EMD Millipore), Myeloma human IgG2 (EMD Millipore), Myeloma human IgG3 (Sigma-Aldrich Co. LLC), and Myeloma human IgG4 (EMD Millipore) were adjusted to 1 μg/mL with PBS(−). The adjusted samples were added to a 96-well plate (Thermo Fisher Scientific) by 100 μL, respectively. The plate was shaken by a shaker under the condition of 700 rpm and 25.0° C. for 1 hour. The solutions were discarded, the plate was cleaned with 300 μL of PBST 3 times, 100 μL of a blocking buffer solution was added to each well, and then the plate was stored at 4° C. one night or more. Similarly, after cleaning with PBST, the MaI4-08 and MaI4-09-produced antibodies were adjusted to 1 μg/mL with an antibody dilute buffer solution and then added to each well by 100 μL, and the plate was shaken under the same condition as mentioned above. Similarly, after cleaning with PBST, a HRP labeled anti-mouse IgG antibody (Abcam) diluted 4000-fold with an antibody dilute buffer solution was added to each well by 100 μL, and the plate was shaken under the same condition as mentioned above. Similarly, after cleaning with PBST, 100 μL of SureBlue (KPL) was added. 5 or 3 minutes later, 100 μL of 0.5 mol/L sulfuric acid (Wako Pure Chemical Corporation) was added to each of MaI4-08 and MaI4-09. Absorbance at a wavelength of 450 nm was measured with a microplate reader (BIO-RAD Laboratories, Inc.). As a result, a strong signal was given to Myeloma human IgG4 as compared to the other samples (Tables 2 and 3, and FIGS. 2 and 3).

[2] = target: Myeloma human IgA2 (Abcam) (human, UniProt P01877-1 1-340); assay: as above
Protocol: as §1

[3] = target: Myeloma human IgD (Abcam) (human, UniProt P01880-1 1-384); assay: as above
Protocol: as §1

[4] = target: Myeloma human IgE (Abcam) (human, UniProt P01854-1 1-428); assay: as above
Protocol: as §1

[5] = target: Myeloma human IgM (Abcam) (human, UniProt P01871-1 1-453); assay: as above
Protocol: as §1

[6] = target: T1, Myeloma human IgG2 (EMD Millipore) (human); assay: as above
T1 construct: Bought myeloma protein
Protocol: as §1

[7] = target: T2, Myeloma human IgG3 (Sigma-Aldrich Co. LLC) (human); assay: as above
T2 construct: Bought myeloma protein
Protocol: as §1

[8] = target: T3, GST-tagged peptide H2 (positions 1 to 274 of the human IgG4 heavy chain constant region) (human, UniProt P01861 1-274 = IgG part); assay: Western blot: E. coli lysate with the GST-tagged peptide, SDS-PAGE, PVDF membrane, POD-labelled antibody diluted 1000-fold, ECL
T3 construct: E. coli lysate on Western blot; not shown: GST tag (glutathione S-transferase) linked to the N terminal, expressed from vector pGEX-6P-1
Protocol: (§2) Based on the designed amino acid sequences, base sequences suitable for expressing protein in E. coli were designed according to the protocol of GenScript Corporation, thereby preparing vector pGEX-6P-1 (GE Healthcare Bio-Sciences Corp.) to which the respective base sequences are inserted. The prepared expression plasmid was introduced to E. coli BL 21 strain, thereby obtaining a transformant. The transformant was cultured by an ordinary method and a protein expression was induced by IPTG. After the cells were collected by centrifugation, the cells were dissolved with an ordinary lysis solution, and subjected to ultrasonication. 6 μL of an SDS sample buffer solution was added to 6 μL of the obtained lysate. The respective prepared samples were subjected to a heat treatment at 95° C. for 5 minutes. 10 μL of the E. coli disrupted sample was added to each well of 5 to 20% electrophoresis gel (Atto Corportation) to which an SDS electrophoresis buffer solution was added. Similarly, a molecular weight standard (Bio-Rad Laboratories, Inc.) was added to each well and electrophoresed. After completing the electrophoresis, the electrophoresis gel was transcribed to a PVDF membrane (Millipore Corporation) with a transfer buffer solution. The PVDF membrane was immersed in a membrane blocking buffer solution, and then shaking was carried out at room temperature for 30 minutes. Amino groups of MaI4-08, MaI4-09, and MaI4-05-produced antibodies were subjected to a POD labeling treatment with a POD labeling kit (Dojindo Molecular Technologies, Inc.). The obtained labeled antibodies each were diluted 1000-fold by PBST. After the PVDF membrane was cleaned with PBST, the antibody solutions prepared each were added to the PVDF membrane, and then the reaction was performed at room temperature for 1 hour. After the PVDF membrane was cleaned by PBST, a signal was detected with ECL Prime Western Blotting Detection Reagents (GE Healthcare) with Image Quant Las4000.

[9] = target: T4, GST-tagged peptide H3 (positions 1 to 220 of the human IgG4 heavy chain constant region) (human, UniProt P01861 1-220 = IgG part); assay: as above
T4 construct: E. coli lysate on Western blot; not shown: GST tag (glutathione S-transferase) linked to the N terminal, expressed from vector pGEX-6P-1
Protocol: as §2

[10] = target: T5, GST-tagged peptide H4 (positions 1 to 165 of the human IgG4 heavy chain constant region) (human, UniProt P01861 1-165 = IgG part); assay: as above
T5 construct: E. coli lysate on Western blot; not shown: GST tag (glutathione S-transferase) linked to the N terminal, expressed from vector pGEX-6P-1
Protocol: as §2

[11] = target: T6, GST-tagged peptide H5 (positions 1 to 110 of the human IgG4 heavy chain constant region) (human, UniProt P01861 1-110 = IgG part); assay: as above
T6 construct: E. coli lysate on Western blot; not shown: GST tag (glutathione S-transferase) linked to the N terminal, expressed from vector pGEX-6P-1
Protocol: as §2

[12] = target: T7, GST-tagged peptide H6 (positions 1 to 55 of the human IgG4 heavy chain constant region) (human, UniProt P01859 1-55 = IgG part); assay: as above
T7 construct: E. coli lysate on Western blot; not shown: GST tag (glutathione S-transferase) linked to the N terminal, expressed from vector pGEX-6P-1
Protocol: as §2

[13] = target: T8, GST-tagged peptide H11 (positions 275 to 327 of the human IgG4 heavy chain constant region) (human, UniProt P01861 275-325 = IgG part); assay: as above
T8 construct: E. coli lysate on Western blot; not shown: GST tag (glutathione S-transferase) linked to the N terminal, expressed from vector pGEX-6P-1
Protocol: as §2

[14] = target: T9, GST-tagged peptide H12 (positions 99 to 220 of the human IgG4 heavy chain constant region) (human, UniProt P01861 99-220 = IgG part); assay: as above
T9 construct: E. coli lysate on Western blot; not shown: GST tag (glutathione S-transferase) linked to the N terminal, expressed from vector pGEX-6P-1
Protocol: as §2

T4 sequence (P01861 1-220): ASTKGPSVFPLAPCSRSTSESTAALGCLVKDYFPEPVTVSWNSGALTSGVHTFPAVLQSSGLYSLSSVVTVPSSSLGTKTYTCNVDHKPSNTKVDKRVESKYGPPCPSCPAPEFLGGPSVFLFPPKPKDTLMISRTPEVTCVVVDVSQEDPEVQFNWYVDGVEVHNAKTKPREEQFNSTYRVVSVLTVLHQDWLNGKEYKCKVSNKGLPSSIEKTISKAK
Myeloma human IgD (Abcam), sequence (P01880 other isoform, or with tags, fused parts or gaps): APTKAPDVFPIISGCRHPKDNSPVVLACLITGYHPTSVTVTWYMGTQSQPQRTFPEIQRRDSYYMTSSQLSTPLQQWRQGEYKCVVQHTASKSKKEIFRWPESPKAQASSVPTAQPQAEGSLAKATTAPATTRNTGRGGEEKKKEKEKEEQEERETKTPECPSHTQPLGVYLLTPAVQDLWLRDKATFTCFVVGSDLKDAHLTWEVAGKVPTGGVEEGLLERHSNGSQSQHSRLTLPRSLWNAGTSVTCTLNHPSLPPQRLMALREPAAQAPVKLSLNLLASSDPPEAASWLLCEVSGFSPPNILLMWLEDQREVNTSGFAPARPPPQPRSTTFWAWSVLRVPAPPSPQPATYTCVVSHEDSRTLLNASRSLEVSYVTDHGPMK
Myeloma human IgA1 (Abcam), sequence (P01876 other isoform, or with tags, fused parts or gaps): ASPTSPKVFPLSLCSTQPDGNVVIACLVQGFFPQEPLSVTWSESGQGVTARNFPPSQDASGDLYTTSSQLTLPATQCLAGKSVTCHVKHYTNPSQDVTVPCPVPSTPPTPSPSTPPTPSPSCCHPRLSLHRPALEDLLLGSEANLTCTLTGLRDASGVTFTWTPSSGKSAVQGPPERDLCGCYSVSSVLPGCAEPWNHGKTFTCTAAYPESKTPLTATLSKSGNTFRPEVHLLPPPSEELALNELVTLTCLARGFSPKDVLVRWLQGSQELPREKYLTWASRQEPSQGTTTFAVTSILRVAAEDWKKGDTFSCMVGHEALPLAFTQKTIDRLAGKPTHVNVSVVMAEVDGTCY
T6 sequence (P01861 1-110): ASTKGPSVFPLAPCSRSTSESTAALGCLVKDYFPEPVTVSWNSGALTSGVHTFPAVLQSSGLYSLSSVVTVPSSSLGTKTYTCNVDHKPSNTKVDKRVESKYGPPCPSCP
Myeloma human IgM (Abcam), sequence (P01871 other isoform, or with tags, fused parts or gaps): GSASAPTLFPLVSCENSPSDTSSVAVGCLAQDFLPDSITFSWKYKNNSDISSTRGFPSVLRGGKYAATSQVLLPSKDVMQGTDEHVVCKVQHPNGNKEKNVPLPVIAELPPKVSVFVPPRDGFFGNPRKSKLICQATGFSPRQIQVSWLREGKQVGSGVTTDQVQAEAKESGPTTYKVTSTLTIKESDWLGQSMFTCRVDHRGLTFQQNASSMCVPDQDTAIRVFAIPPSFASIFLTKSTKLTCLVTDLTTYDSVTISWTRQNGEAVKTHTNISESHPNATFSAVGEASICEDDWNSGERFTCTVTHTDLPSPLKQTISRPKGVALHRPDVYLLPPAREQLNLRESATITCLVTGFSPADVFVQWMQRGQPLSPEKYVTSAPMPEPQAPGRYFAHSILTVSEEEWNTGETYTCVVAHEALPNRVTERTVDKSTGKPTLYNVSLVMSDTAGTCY
T5 sequence (P01861 1-165): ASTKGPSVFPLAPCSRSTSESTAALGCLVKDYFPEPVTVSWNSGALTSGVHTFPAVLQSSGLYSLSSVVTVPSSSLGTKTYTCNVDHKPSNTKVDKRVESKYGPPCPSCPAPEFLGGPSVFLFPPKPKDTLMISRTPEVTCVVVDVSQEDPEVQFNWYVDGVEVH
Myeloma human IgA2 (Abcam), sequence (P01877 other isoform, or with tags, fused parts or gaps): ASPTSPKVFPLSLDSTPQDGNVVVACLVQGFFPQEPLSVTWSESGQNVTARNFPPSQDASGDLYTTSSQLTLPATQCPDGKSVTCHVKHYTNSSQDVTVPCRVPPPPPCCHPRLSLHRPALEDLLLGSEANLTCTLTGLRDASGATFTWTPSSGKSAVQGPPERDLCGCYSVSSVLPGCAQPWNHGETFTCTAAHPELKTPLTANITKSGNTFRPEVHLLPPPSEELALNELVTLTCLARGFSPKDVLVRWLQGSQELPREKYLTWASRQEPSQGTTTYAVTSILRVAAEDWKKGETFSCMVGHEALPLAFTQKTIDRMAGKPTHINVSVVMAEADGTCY
T3 sequence (P01861 1-274): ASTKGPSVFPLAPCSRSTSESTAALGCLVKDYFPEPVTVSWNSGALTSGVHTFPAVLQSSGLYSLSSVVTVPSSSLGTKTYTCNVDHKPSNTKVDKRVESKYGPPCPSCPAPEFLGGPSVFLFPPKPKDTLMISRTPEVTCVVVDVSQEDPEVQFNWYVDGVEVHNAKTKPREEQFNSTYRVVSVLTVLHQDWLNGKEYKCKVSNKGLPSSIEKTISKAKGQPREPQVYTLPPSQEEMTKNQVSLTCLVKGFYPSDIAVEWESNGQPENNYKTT
T1 sequence (constant, as listed by the source limits assumed): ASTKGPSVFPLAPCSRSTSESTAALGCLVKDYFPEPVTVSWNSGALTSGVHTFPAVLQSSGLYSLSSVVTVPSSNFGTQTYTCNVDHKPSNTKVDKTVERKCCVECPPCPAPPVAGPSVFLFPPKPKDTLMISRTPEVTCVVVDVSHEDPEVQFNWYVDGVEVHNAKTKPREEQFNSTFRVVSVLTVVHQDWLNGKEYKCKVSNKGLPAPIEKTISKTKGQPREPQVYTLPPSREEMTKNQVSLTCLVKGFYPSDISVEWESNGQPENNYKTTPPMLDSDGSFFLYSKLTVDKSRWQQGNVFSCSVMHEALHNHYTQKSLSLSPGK
T9 sequence (P01861 99-220): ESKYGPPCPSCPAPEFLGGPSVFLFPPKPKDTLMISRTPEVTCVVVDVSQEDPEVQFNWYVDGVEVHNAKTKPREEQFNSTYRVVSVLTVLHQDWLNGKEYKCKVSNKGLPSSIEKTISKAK
T2 sequence (constant, as listed by the source limits assumed): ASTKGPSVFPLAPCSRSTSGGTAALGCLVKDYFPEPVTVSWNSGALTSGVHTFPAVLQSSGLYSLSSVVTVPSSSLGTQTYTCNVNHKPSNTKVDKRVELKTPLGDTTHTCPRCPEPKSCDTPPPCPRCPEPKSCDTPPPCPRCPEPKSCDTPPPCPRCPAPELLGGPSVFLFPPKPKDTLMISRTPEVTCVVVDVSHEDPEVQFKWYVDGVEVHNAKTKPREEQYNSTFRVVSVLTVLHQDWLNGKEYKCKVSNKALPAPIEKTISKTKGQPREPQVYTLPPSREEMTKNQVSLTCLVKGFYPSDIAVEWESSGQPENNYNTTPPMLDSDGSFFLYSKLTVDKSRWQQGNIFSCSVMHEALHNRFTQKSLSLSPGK
Myeloma human IgE (Abcam), sequence (P01854 other isoform, or with tags, fused parts or gaps): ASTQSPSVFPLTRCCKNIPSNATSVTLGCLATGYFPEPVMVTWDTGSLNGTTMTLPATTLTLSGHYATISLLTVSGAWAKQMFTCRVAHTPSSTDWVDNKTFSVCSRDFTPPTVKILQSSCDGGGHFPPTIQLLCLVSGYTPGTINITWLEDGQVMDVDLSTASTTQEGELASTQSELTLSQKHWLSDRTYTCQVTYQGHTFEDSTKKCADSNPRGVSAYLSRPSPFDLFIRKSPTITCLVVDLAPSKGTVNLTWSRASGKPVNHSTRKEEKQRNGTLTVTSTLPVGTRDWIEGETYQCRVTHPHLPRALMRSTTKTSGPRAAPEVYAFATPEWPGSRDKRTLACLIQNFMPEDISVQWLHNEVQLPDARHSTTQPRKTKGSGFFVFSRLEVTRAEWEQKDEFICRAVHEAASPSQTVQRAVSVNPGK
T7 sequence (P01859 1-55): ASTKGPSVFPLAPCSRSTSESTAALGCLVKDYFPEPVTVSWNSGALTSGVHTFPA
T8 sequence (P01861 other isoform, or with tags, fused parts or gaps): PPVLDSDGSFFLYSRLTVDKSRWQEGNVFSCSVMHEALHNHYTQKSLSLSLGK

B1: MaI4-09-produced antibody (antibody, IgG1, V domains shown)
VH: EVQLQQSGPELVKPGASVKMSCKASGYTFTSSVMHWMKQKPGQGLEWIGYINPYNDGTRYNEKFQGKATLTSDKSSNTAYMELSSLTSEDSAVYYCTRSFYYGNSHVLFAYWGQGTLVTVSA
VL: DIKMTQSPSSIYPSLGERVTITCKASQDINSYLSWFQQKPGKSPKTLIYRANRLVDGVPSRFSGSGSGQDYSLTISSLEYEDMGIYHCLQYDELPYTFGGGTTLEIK
notes: Purified on protein G from hybridoma culture supernatant; POD-labelled for the Western blots
B1 was tested, and the “absorbance at 450 nm” value [1] was 0.058, the “absorbance at 450 nm” value [2] was 0.05 and the “absorbance at 450 nm” value [3] was 0.051. For the same binder, the “absorbance at 450 nm” value [4] was 0.05, the “absorbance at 450 nm” value [5] was 0.055 and the “absorbance at 450 nm” value [6] was 0.064. The “absorbance at 450 nm” value [7] was 0.052, the binding result [8] was “no binding” and the binding result [9] was “no binding”. B1: no binding [10]; no binding [11]; no binding [12]. B1: no binding [13]; no binding [14].
